# ± gives the uncertainty stated by the source.
# B1: Zinc finger MYM-type protein 6, residues 427 to 504; numbered along this chain, O95789 (parent)
# chain: KLKCQHCNHLFATKPELLFYKGKMFLFCGKNCSDEYKKKNKVVAMCDYCKLQKIIKETVRFSGVDKPFCSEVCKFLSA
# Variants of: B1
# Test: abundance fitness (aPCA) (normalised: wild type 0, dead -1); higher = more abundant; growth selection in yeast, the domain comes from the species named
# Settings: Homo sapiens
row,Variant,abundance fitness
1,C73P,-1.51 ± 0.47
2,E71W,-0.634 ± 0.18
3,E71T,0.076 ± 0.1
4,E71A,-0.188 ± 0.092
5,E71L,-0.962 ± 0.19
6,E71H,-0.09 ± 0.39
7,E71S,-0.239 ± 0.14
8,V43N,0.239 ± 0.17
9,V43D,-0.271 ± 0.37
10,V43M,0.55 ± 0.12
11,V43E,-0.064 ± 0.33
12,V43H,-0.763 ± 0.22
13,K21H,-0.018 ± 0.049
14,K21Q,-0.03 ± 0.036
15,K21Y,-0.099 ± 0.042
16,K21D,-0.004 ± 0.041
17,K21V,-0.155 ± 0.037
18,K21C,-0.036 ± 0.047
19,K21G,0.019 ± 0.029
20,K21L,-0.007 ± 0.032
21,D47N,-0.327 ± 0.19
22,D47T,-0.041 ± 0.15
23,D47S,0.311 ± 0.082
24,D47W,0.424 ± 0.072

row,Variant,abundance fitness
1,F27T,-0.161 ± 0.04
2,F27H,-0.405 ± 0.069
3,F27C,-0.025 ± 0.068
4,F27K,-0.727 ± 0.17
5,F27G,-0.545 ± 0.037
6,F27N,-0.512 ± 0.19
7,F27M,-0.066 ± 0.043
8,F61G,-0.002 ± 0.079
9,F61E,0.298 ± 0.083
10,F61H,-0.151 ± 0.41
11,F61P,-0.308 ± 0.21
12,F61T,0.348 ± 0.086
13,C7L,-0.951 ± 0.075
14,C7G,-0.442 ± 0.03
15,C7F,-0.845 ± 0.25
16,C7M,-0.76 ± 0.11
17,C7S,-0.823 ± 0.064
18,K14W,-0.408 ± 0.056
19,K14C,-0.243 ± 0.096
20,K14P,-0.182 ± 0.043
21,K14T,-0.032 ± 0.051
22,K14N,-0.1 ± 0.058
23,K53C,0.367 ± 0.12
24,K37R,-0.046 ± 0.028

row,Variant,abundance fitness
1,K37N,0.097 ± 0.24
2,K37A,0.004 ± 0.028
3,L2D,0.069 ± 0.054
4,L2F,0.018 ± 0.14
5,F11L,-0.129 ± 0.035
6,F11T,0.014 ± 0.039
7,F11W,-0.207 ± 0.033
8,F11V,0.031 ± 0.032
9,F11M,-0.134 ± 0.054
10,F11S,-0.094 ± 0.043
11,F11H,-0.354 ± 0.088
12,A78N,-0.301 ± 0.14
13,A78V,-0.292 ± 0.12
14,A78R,-0.142 ± 0.15
15,K66V,0.542 ± 0.081
16,K66G,0.144 ± 0.11
17,K66L,-0.889 ± 0.4
18,K66A,-0.292 ± 0.23
19,K66S,-0.669 ± 0.31
20,K3F,-0.116 ± 0.055
21,K3I,-0.124 ± 0.068
22,K3M,-0.192 ± 0.051
23,K3N,-0.011 ± 0.051
24,K3R,-0.075 ± 0.032

row,Variant,abundance fitness
1,K3E,0.001 ± 0.036
2,K39Q,-0.043 ± 0.047
3,K39E,-0.012 ± 0.057
4,K39P,-0.055 ± 0.048
5,S70H,-0.248 ± 0.18
6,S70L,-0.162 ± 0.2
7,S70A,-0.651 ± 0.12
8,E35Q,-0.082 ± 0.06
9,E35G,-0.007 ± 0.028
10,E35Y,-0.108 ± 0.098
11,E35P,-0.331 ± 0.051
12,E35A,-0.024 ± 0.029
13,E35C,-0.402 ± 0.46
14,L17G,-0.042 ± 0.03
15,L17M,0.061 ± 0.054
16,L17A,-0.003 ± 0.032
17,L17W,0.065 ± 0.03
18,L17N,0.19 ± 0.38
19,L17P,0.024 ± 0.038
20,F25M,0.048 ± 0.035
21,F25H,-0.109 ± 0.073
22,F25K,-0.067 ± 0.041
23,F25P,-0.17 ± 0.036
24,D34G,-0.078 ± 0.029

row,Variant,abundance fitness
1,D34L,-0.14 ± 0.038
2,D34W,-0.156 ± 0.035
3,D34M,-0.091 ± 0.055
4,L76R,0.209 ± 0.073
5,L76H,0.095 ± 0.32
6,C49V,-1.07 ± 0.17
7,C49K,-0.433 ± 0.32
8,C49T,-0.54 ± 0.32
9,C49D,-0.718 ± 0.14
10,C49M,-0.677 ± 0.23
11,C49G,-0.54 ± 0.083
12,C49S,-0.489 ± 0.13
13,D65T,-0.208 ± 0.36
14,D65N,-0.141 ± 0.34
15,D65R,-0.908 ± 0.23
16,D65F,-0.598 ± 0.2
17,D65G,-0.488 ± 0.1
18,D65I,-0.666 ± 0.3
19,K74G,-0.427 ± 0.13
20,K74N,-0.996 ± 0.23
21,K74L,-0.594 ± 0.15
22,S62R,-0.01 ± 0.096
23,S62M,0.432 ± 0.17
24,S62H,0.585 ± 0.089

row,Variant,abundance fitness
1,S62D,0.914 ± 0.083
2,S62Y,0.176 ± 0.15
3,M45G,-0.502 ± 0.085
4,M45V,-0.145 ± 0.096
5,M45A,0.039 ± 0.089
6,I54C,0.675 ± 0.26
7,I54T,0.104 ± 0.17
8,I54N,0.189 ± 0.39
9,I54V,0.131 ± 0.076
10,I54M,0.623 ± 0.083
11,I54W,-0.079 ± 0.11
12,N31H,0.062 ± 0.19
13,N31E,-0.058 ± 0.039
14,N31L,-0.067 ± 0.035
15,N31W,-0.054 ± 0.037
16,N31F,-0.229 ± 0.07
17,N31R,0.012 ± 0.029
18,E57G,-0.163 ± 0.069
19,E57V,-0.059 ± 0.1
20,E57A,-0.129 ± 0.1
21,E57R,-0.181 ± 0.087
22,E57Q,-0.289 ± 0.38
23,V72K,0.775 ± 0.19
24,A44V,-0.319 ± 0.19

row,Variant,abundance fitness
1,A44K,0.117 ± 0.14
2,A44S,-0.282 ± 0.12
3,A44P,-0.604 ± 0.28
4,F68W,-0.651 ± 0.12
5,F68P,-0.113 ± 0.14
6,F68T,-0.555 ± 0.35
7,F68R,-0.516 ± 0.11
8,L51T,0.551 ± 0.1
9,L51M,0.805 ± 0.092
10,L51I,0.022 ± 0.32
11,L51K,0.414 ± 0.11
12,L51V,-0.119 ± 0.091
13,L51R,0.509 ± 0.064
14,L51C,0.49 ± 0.13
15,Y20F,0.054 ± 0.065
16,Y20Q,-0.01 ± 0.045
17,Y20D,-0.033 ± 0.047
18,Y20C,-0.023 ± 0.082
19,S33V,-0.054 ± 0.03
20,S33A,-0.032 ± 0.031
21,S33Y,-0.14 ± 0.4
22,S33Q,0.017 ± 0.053
23,S33E,-0.025 ± 0.039
